B1: TELO2 (protein)
chain: MEPAPSEVRLAVREAIHALSSSEDGGHIFCTLESLKRYLGEMEPPALPREKEEFASAHFSPVLRCLASRLSPAWLELLPHGRLEELWASFFLEGPADQAFLVLMETIEGAAGPSFRLMKMARLLARFLREGRLAVLMEAQCRQQTQPGFILLRETLLGKVVALPDHLGNRLQQENLAEFFPQNYFRLLGEEVVRVLQAVVDSLQGGLDSSVSFVSQVLGKACVHGRQQEILGVLVPRLAALTQGSYLHQRVCWRLVEQVPDRAMEAVLTGLVEAALGPEVLSRLLGNLVVKNKKAQFVMTQKLLFLQSRLTTPMLQSLLGHLAMDSQRRPLLLQVLKELLETWGSSSAIRHTPLPQQRHVSKAVLICLAQLGEPELRDSRDELLASMMAGVKCRLDSSLPPVRRLGMIVAEVVSARIHPEGPPLKFQYEEDELSLELLALASPQPAGDGASEAGTSLVPATAEPPAETPAEIVDGGVPQAQLAGSDSDLDSDDEFVPYDMSGDRELKSSKAPAYVRDCVEALTTSEDIERWEAALRALEGLVYRSPTATREVSVELAKVLLHLEEKTCVVGFAGLRQRALVAVTVTDPAPVADYLTSQFYALNYSLRQRMDILDVLTLAAQELSRPGCLGRTPQPGSPSPNTPCLPEAAVSQPGSAVASDWRVVVEERIRSKTQRLSKGGPRQGPAGSPSRFNSVAGHFFFPLLQRFDRPLVTFDLLGEDQLVLGRLAHTLGALMCLAVNTTVAVAMGKALLEFVWALRFHIDAYVRQGLLSAVSSVLLSLPAARLLEDLMDELLEARSWLADVAEKDPDEDCRTLALRALLLLQRLKNRLLPPASP
B2: GEMIN4 (protein)
chain: MDLGPLNICEEMTILHGGFLLAEQLFHPKALAELTKSDWERVGRPIVEALREISSAAAHSQPFAWKKKALIIIWAKVLQPHPVTPSDTETRWQEDLFFSVGNMIPTINHTILFELLKSLEASGLFIQLLMALPTTICHAELERFLEHVTVDTSAEDVAFFLDVWWEVMKHKGHPQDPLLSQFSAMAHKYLPALDEFPHPPKRLRSDPDACPTMPLLAMLLRGLTQIQSRILGPGRKCCALANLADMLTVFALTEDDPQEVSATVYLDKLATVISVWNSDTQNPYHQQALAEKVKEAERDVSLTSLAKLPSETIFVGCEFLHHLLREWGEELQAVLRSSQGTSYDSYRLCDSLTSFSQNATLYLNRTSLSKEDRQVVSELAECVRDFLRKTSTVLKNRALEDITASIAMAVIQQKMDRHMEVCYIFASEKKWAFSDEWVACLGSNRALFRQPDLVLRLLETVIDVSTADRAIPESQIRQVIHLILECYADLSLPGKNKVLAGILRSWGRKGLSEKLLAYVEGFQEDLNTTFNQLTQSASEQGLAKAVASVARLVIVHPEVTVKKMCSLAVVNLGTHKFLAQILTAFPALRFVEEQGPNSSATFMVSCLKETVWMKFSTPKEEKQFLELLNCLMSPVKPQGIPVAALLEPDEVLKEFVLPFLRLDVEEVDLSLRIFIQTLEANACREEYWLQTCSPFPLLFSLCQLLDRFSKYWQLPKEKRCLSLDRKDLAIHILELLCEIVSANAETFSPDVWIKSLSWLHRKLEQLDWTVGLRLKSFFEGHFKCEVPATLFEICKLSEDEWTSQAHPGYGAGTGLLAWMECCCVSSGISERMLSLLVVDVGNPEEVRLFSKGFLVALVQVMPWCSPQEWQRLHQLTRRLLEKQLLHVPYSLEYIQFVPLLNLKPFAQELQLSVLFLRTFQFLCSHSCRDWLPLEGWNHVVKLLCGSLTRLLDSVRAIQAAGPWVQGPEQDLTQEALFVYTQVFCHALHIMAMLHPEVCEPLYVLALETLTCYETLSKTNPSVSSLLQRAHEQRFLKSIAEGIGPEERRQTLLQKMSSF
B3: CHCHD3 (protein)
chain: GGTTSTRRVTFEADENENITVVKGIRLSENVIDRMKESSPSGSKSQRYSGAYGASVSDEELKRRVAEELALEQAKKESEDQKRLKQAKELDRERAAANEQLTRAILRERICSEEERAKAKHLARQLEEKDRVLKKQDAFYKEQLARLEERSSEFYRVTTEQYQKAAEEVEAKFKRYESHPVCADLQAKILQCYRENTHQTLKCSALATQYMHCVNHAKQSMLEKGG
B4: PPFIBP1 (protein)
chain: MMSDASDMLAAALEQMDGIIAGSKALEYSNGIFDCQSPTSPFMGSLRALHLVEDLRGLLEMMETDEKEGLRCQIPDSTAETLVEWLQSQMTNGHLPGNGDVYQERLARLENDKESLVLQVSVLTDQVEAQGEKIRDLEFCLEEHREKVNATEEMLQQELLSRTSLETQKLDLMAEISNLKLKLTAVEKDRLDYEDKFRDTEGLIQEINDLRLKVSEMDSERLQYEKKLKSTKDELASLKEQLEEKESEVKRLQEKLVCKMKGEGVEIVDRDIEVQKMKKAVESLMAANEEKDRKIEDLRQCLNRYKKMQDTVVLAQGKDGEYEELLNSSSISSLLDAQGFSDLEKSPSPTPVMGSPSCDPFNTSVPEEFHTTILQVSIPSLLPATVSMETSEKSKLTPKPETSFEENDGNIILGATVDTQLCDKLLTSSLQKSSSLGNLKKETSDGEKETIQKTSEDRAPAESRPFGTLPPRPPGQDTSMDDNPFGTRKVRSSFGRGFFKIKSNKRTASAPNLAETEKETAEHLDLAGASSRPKDSQRNSPFQIPPPSPDSKKKSRGIMKLFGKLRRSQSTTFNPDDMSEPEFKRGGTRATAGPRLGWSRDLGQSNSDLDMPFAKWTKEQVCNWLMEQGLGSYLNSGKHWIASGQTLLQASQQDLEKELGIKHSLHRKKLQLALQALGSEEETNHGKLDFNWVTRWLDDIGLPQYKTQFDEGRVDGRMLHYMTVDDLLSLKVVSVLHHLSIKRAIQVLRINNFEPNCLRRRPSDENTIAPSEVQKWTNHRVMEWLRSVDLAEYAPNLRGSGVHGGLMVLEPRFNVETMAQLLNIPPNKTLLRRHLATHFNLLIGAEAQHQKRDAMELPDYVLLTATAKVKPKKLAFSNFGNLRKKKQEDGEEYVCPMELGQASGSASKKGFKPGLDMRLYEEDDLDRLEQMEDSEGTVRQIGAFSEGINNLTHMLKEDDMFKDFAARSPSASITDEDSNV
B5: S100A7 (protein)
chain: SNTQAERSIIGMIDMFHKYTRRDDKIEKPSLLTMMKENFPNFLSACDKKGTNYLADVFEKKDKNEDKKIDFSEFLSLLGDIATDYHKQSHGAAPCSGGSQ
B6: EMILIN1 (protein)
chain: ASYPPRGFSLYTGSSGALSPGGPQAQIAPRPASRHRNWCAYVVTRTVSCVLEDGVETYVKYQPCAWGQPQCPQSIMYRRFLRPRYRVAYKTVTDMEWRCCQGYGGDDCAESPAPALGPASSTPRPLARPARPNLSGSSAGSPLSGLGGEGPGESEKVQQLEEQVQSLTKELQGLRGVLQGLSGRLAEDVQRAVETAFNGRQQPADAAARPGVHETLNEIQHQLQLLDTRVSTHDQELGHLNNHHGGSSSSGGSRAPAPASAPPGPSEELLRQLEQRLQESCSVCLAGLDGFRRQQQEDRERLRAMEKLLASVEERQRHLAGLAVGRRPPQECCSPELGRRLAELERRLDVVAGSVTVLSGRRGTELGGAAGQGGHPPGYTSLASRLSRLEDRFNSTLGPSEEQEESWPGAPGGLSHWLPAARGRLEQLGGLLANVSGELGGRLDLLEEQVAGAMQACGQLCSGAPGEQDSQVSEILSALERRVLDSEGQLRLVGSGLHTVEAAGEARQATLEGLQEVVGRLQDRVDAQDETAAEFTLRLNLTAARLGQLEGLLQAHGDEGCGACGGVQEELGRLRDGVERCSCPLLPPRGPGAGPGVGGPSRGPLDGFSVFGGSSGSALQALQGELSEVILSFSSLNDSLNELQTTVEGQGADLADLGATKDRIISEINRLQQEATEHATESEERFRGLEEGQAQAGQCPSLEGRLGRLEGVCERLDTVAGGLQGLREGLSRHVAGLWAGLRETNTTSQMQAALLEKLVGGQAGLGRRLGALNSSLQLLEDRLHQLSLKDLTGPAGEAGPPGPPGLQGPPGPAGPPGSPGKDGQEGPIGPPGPQGEQGVEGAPAAPVPQVAFSAALSLPRSEPGTVPFDRVLLNDGGYYDPETGVFTAPLAGRYLLSAVLTGHRHEKVEAVLSRSNQGVARVDSGGYEPEGLENKPVAESQPSPGTLGVFSLILPLQAGDTVCVDLVMGQLAHSEEPLTIFSGALLYGDPELEHA

Target: T1, B3GNT2 (Homo sapiens, UniProt Q9NY97)
T1 construct: The respective ORFs of candidate genes [CD274 (NM_014143), MCL1 (NM_021960), JUNB (NM_002229), and B3GNT2 (NM_006577)] were synthesized; expressed in transfected cells; host or cells: A375 melanoma cells (lentiviral ORF overexpression)
T1 sequence (Q9NY97 1-397): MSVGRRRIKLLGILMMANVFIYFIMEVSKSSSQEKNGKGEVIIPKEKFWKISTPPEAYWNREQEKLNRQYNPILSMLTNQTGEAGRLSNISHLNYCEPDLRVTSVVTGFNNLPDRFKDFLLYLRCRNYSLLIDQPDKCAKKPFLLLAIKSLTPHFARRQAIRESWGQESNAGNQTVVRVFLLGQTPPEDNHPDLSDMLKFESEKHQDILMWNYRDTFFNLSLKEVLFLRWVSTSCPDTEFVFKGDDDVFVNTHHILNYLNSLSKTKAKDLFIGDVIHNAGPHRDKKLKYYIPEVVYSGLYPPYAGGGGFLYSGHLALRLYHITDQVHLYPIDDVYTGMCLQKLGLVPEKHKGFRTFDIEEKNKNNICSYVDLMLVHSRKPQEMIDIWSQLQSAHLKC
Experiment: Co-IP of FLAG-tagged B3GNT2 followed by mass spectrometry
Assay type: cell-based
Set-up: C-term IgG / C-term flag: unit not given here
Conditions: Co-IP followed by mass spectrometry of B3GNT2; for C-term flag / C-term IgG: C-term tag; for C-term flag / N-term FLAG: FLAG pull-down; for C-term IgG / N-term IgG: IgG pull-down; for N-term FLAG / N-term IgG: N-term tag
In short: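 Co-purifying proteins were identified by fractionated nano-LC–MS/MS on an Orbitrap Elite, run data-dependent. Beforehand, lysates in 1% Triton X-100/HEPES buffer were incubated overnight at 4° C with anti-FLAG or […] and pulled down on Protein A/G magnetic beads for 4 h. Duplicate biological replicates.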

Molecule | C-term flag | C-term IgG | N-term FLAG | N-term IgG
B1 | 3 | 0 | 2 | 0
B2 | 5 | 0 | 0 | 0
B3 | 15 | 11 | 16 | 10
B4 | 3 | 0 | 2 | 0
B5 | 5 | 3 | 3 | 2
B6 | 3 | 0 | 2 | 0

Reference: US20240261333A1, “NOVEL TARGETS FOR ENHANCING ANTI-TUMOR IMMUNITY” (THE BROAD INSTITUTE, INC., priority 2021, published 2024)
